The target in the test is T1, human C5aR (CD88) (human, UniProt P21730 1-350).
T1 sequence (looked up): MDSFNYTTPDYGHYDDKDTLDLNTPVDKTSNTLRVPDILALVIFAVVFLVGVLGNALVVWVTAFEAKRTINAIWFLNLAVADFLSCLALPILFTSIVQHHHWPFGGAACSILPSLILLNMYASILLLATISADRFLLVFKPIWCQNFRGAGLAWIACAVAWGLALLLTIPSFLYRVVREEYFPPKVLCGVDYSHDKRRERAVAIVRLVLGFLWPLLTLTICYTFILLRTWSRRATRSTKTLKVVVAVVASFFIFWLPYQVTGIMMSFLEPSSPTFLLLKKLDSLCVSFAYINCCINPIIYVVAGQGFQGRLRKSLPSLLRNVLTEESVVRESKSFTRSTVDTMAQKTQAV
The test can be described thus: cell-based or functional assay.
As to 3PP-Orn-Aze-cha-Bta-Phe-NH2 (peptide), the IC50 activity group, enzyme release assay was less than 200 nM.

Consider 3PP-[Orn-Hyp-cha-Trp-Nle] (peptide), for which the IC50 activity group, enzyme release assay was less than 50 nM.

“(-CO-CH2-CH2-CO-)-Phe-Orn-Pro-cha-Bta-Phe-NH2 (peptide)” came in with an IC50 activity group, enzyme release assay of less than 2000 nM.

For “(-CO-CH2-NH-CO-)-Phe-Orn-Pro-cha-Bta-Phe-NH2 (peptide)”, the IC50 activity group, enzyme release assay is less than 200 nM.

The substance “Ac-Ala-Phe-Orn-Aze-cha-Bta-Phe-NH2 (peptide)” had an IC50 activity group, enzyme release assay of less than 50 nM.

As for “Ac-Arg-Phe-Orn-Aze-cha-Bta-Phe-NH2 (peptide)”, the IC50 activity group, enzyme release assay was less than 50 nM.

The substance “Ac-Cit-Phe-Orn-Aze-cha-Bta-Phe-NH2 (peptide)” had an IC50 activity group, enzyme release assay of less than 50 nM.

On to “Ac-Dab-Phe-Orn-Aze-cha-Bta-Phe-NH2 (peptide)”, for which the IC50 activity group, enzyme release assay is less than 200 nM.

With “Ac-Ebw-Orn-Pro-cha-Trp-Phe-NH2 (peptide)”, the EC50, agonistic activity, enzyme release assay was greater than 100000 nM and the IC50 activity group, enzyme release assay is less than 200 nM.

Take “Ac-Eby-Orn-Pro-cha-Bta-Phe-NH2 (peptide)”: the IC50 activity group, enzyme release assay is less than 50 nM.

“Ac-Gly-Phe-Orn-Aze-cha-Bta-Phe-NH2 (peptide)” registered an IC50 activity group, enzyme release assay of less than 20 nM.

The substance “Ac-Gly-Phe-Orn-Aze-chg-Bta-Phe-NH2 (peptide)” yielded an IC50 activity group, enzyme release assay of less than 200 nM.

In turn, “Ac-Gly-Phe-Orn-Aze-hch-Bta-Phe-NH2 (peptide)” returned an IC50 activity group, enzyme release assay of less than 200 nM.

For the substance “Ac-Gly-Thi-Orn-Aze-cha-Bta-Phe-NH2 (peptide)”, the IC50 activity group, enzyme release assay is less than 50 nM.

Turning to “Ac-Guf-Phe-Orn-Aze-cha-Bta-Phe-NH2 (peptide)”, the IC50 activity group, enzyme release assay was less than 200 nM.

“Ac-His-Phe-Orn-Aze-cha-Bta-Phe-NH2 (peptide)” returned an IC50 activity group, enzyme release assay of less than 200 nM.

“Ac-Hyp-Phe-Orn-Aze-cha-Bta-Phe-NH2 (peptide)” had an IC50 activity group, enzyme release assay of less than 50 nM.

As for “Ac-Lys-Phe-Orn-Aze-cha-Bta-Phe-NH2 (peptide)”, the IC50 activity group, enzyme release assay is less than 20 nM.

“Ac-Mff-Orn-Pro-cha-Bta-Phe-NH2 (peptide)” returned an IC50 activity group, enzyme release assay of less than 200 nM.

“Ac-Mff-Orn-Pro-hle-Bta-Phe-NH2 (peptide)” came in with an IC50 activity group, enzyme release assay of less than 200 nM.

Regarding “Ac-Mff-Orn-Pro-hle-Mcf-Mff-NH2 (peptide)”, the IC50 activity group, enzyme release assay was less than 200 nM.

For “Ac-Mmy-Orn-Pro-hle-Pff-Phe-NH2 (peptide)”, the IC50 activity group, enzyme release assay was less than 200 nM.

Regarding “Ac-NMF-Orn-Pro-cha-Bta-Phe-NH2 (peptide)”, the IC50 activity group, enzyme release assay is less than 200 nM.

Turning to “Ac-Off-Orn-Pro-cha-Bta-Phe-NH2 (peptide)”, the IC50 activity group, enzyme release assay was less than 50 nM.

For the substance “Ac-Off-Orn-Pro-hle-Bta-Phe-NH2 (peptide)”, the IC50 activity group, enzyme release assay was less than 50 nM.

Turning to “Ac-Orn-Phe-Orn-Aze-cha-Bta-Phe-NH2 (peptide)”, the IC50 activity group, enzyme release assay is less than 200 nM.

In turn, “Ac-Pff-Orn-Pro-cha-Bta-Phe-NH2 (peptide)” had an IC50 activity group, enzyme release assay of less than 50 nM.

As for “Ac-Pff-Orn-Pro-hle-Bta-Phe-NH2 (peptide)”, the IC50 activity group, enzyme release assay is less than 200 nM.

The substance “Ac-Pff-Orn-Pro-hle-Mcf-Pff-NH2 (peptide)” returned an IC50 activity group, enzyme release assay of less than 200 nM.

The substance “Ac-Phe-Bta-Aze-cha-Bta-Phe-NH2 (peptide)” came in with an IC50 activity group, enzyme release assay of less than 50 nM.

In the case of “Ac-Phe-Cit-Hyp-hle-Bta-Phe-NH2 (peptide)”, the IC50 activity group, enzyme release assay was less than 200 nM.

Consider “Ac-Phe-Cit-Pro-cha-Bta-Phe-NH2 (peptide)”, for which the IC50 activity group, enzyme release assay was less than 200 nM.

For the substance “Ac-Phe-Cit-Pro-hle-Bta-Phe-NH2 (peptide)”, the IC50 activity group, enzyme release assay is less than 50 nM.

“Ac-Phe-Cit-Ser-hle-Bta-Phe-NH2 (peptide)” came in with an IC50 activity group, enzyme release assay of less than 200 nM.

As for “Ac-Phe-Dab-Aze-cha-Bta-Phe-NH2 (peptide)”, the IC50 activity group, enzyme release assay was less than 50 nM.

The substance “Ac-Phe-Dab-Aze-hle-Bta-Phe-NH2 (peptide)” yielded an IC50 activity group, enzyme release assay of less than 50 nM.

Consider “Ac-Phe-Dab-Pro-cha-Bta-Phe-NH2 (peptide)”, for which the IC50 activity group, enzyme release assay was less than 20 nM.

For the substance “Ac-Phe-Dap-Pro-cha-Bta-Phe-NH2 (peptide)”, the IC50 activity group, enzyme release assay was less than 200 nM.

“Ac-Phe-Ech-Pro-cha-Bta-Phe-NH2 (peptide)” returned an IC50 activity group, enzyme release assay of less than 200 nM.

For “Ac-Phe-Eec-Pro-cha-Bta-Phe-NH2 (peptide)”, the IC50 activity group, enzyme release assay is less than 200 nM.

The substance “Ac-Phe-Eep-Pro-cha-Bta-Phe-NH2 (peptide)” registered an IC50 activity group, enzyme release assay of less than 200 nM.

Substance “Ac-Phe-Fcn-Aze-cha-Bta-Phe-NH2 (peptide)” registered an IC50 activity group, enzyme release assay of less than 20 nM.

The substance “Ac-Phe-Fcn-Pro-cha-Bta-Phe-NH2 (peptide)” yielded an IC50 activity group, enzyme release assay of less than 20 nM.

For “Ac-Phe-Fco-Pro-cha-Bta-Phe-NH2 (peptide)”, the IC50 activity group, enzyme release assay is less than 50 nM.

As to “Ac-Phe-Fcp-Aze-cha-Bta-Phe-NH2 (peptide)”, the IC50 activity group, enzyme release assay was less than 50 nM.

For the substance “Ac-Phe-Ffa-Aze-cha-Bta-Phe-NH2 (peptide)”, the IC50 activity group, enzyme release assay is less than 50 nM.

“Ac-Phe-Ffa-Pro-cha-Bta-Phe-NH2 (peptide)”: the IC50 activity group, enzyme release assay is less than 50 nM.

Substance “Ac-Phe-Ffa-Pro-hle-Bta-Phe-NH2 (peptide)” displayed an IC50 activity group, enzyme release assay of less than 20 nM.

For “Ac-Phe-Guf-Pro-cha-Bta-Phe-NH2 (peptide)”, the IC50 activity group, enzyme release assay was less than 50 nM.

The substance “Ac-Phe-Har-Aze-cha-Bta-Phe-NH2 (peptide)” had an IC50 activity group, enzyme release assay of less than 20 nM.

The substance “Ac-Phe-Har-Pro-cha-Bta-Phe-NH2 (peptide)” returned an IC50 activity group, enzyme release assay of less than 50 nM.

“Ac-Phe-Mpa-Pro-cha-Bta-Phe-NH2 (peptide)” gave an IC50 activity group, enzyme release assay of less than 200 nM.

“Ac-Phe-Nle-Pro-cha-Bta-Phe-NH2 (peptide)” yielded an IC50 activity group, enzyme release assay of less than 200 nM.

As to “Ac-Phe-OrA-Pro-cha-Bta-Phe-NH2 (peptide)”, the IC50 activity group, enzyme release assay was less than 200 nM.

Substance “Ac-Phe-OrE-Pro-cha-Bta-Phe-NH2 (peptide)” showed an IC50 activity group, enzyme release assay of less than 200 nM.

In turn, “Ac-Phe-Orn(Ac)-Aze-cha-Bta-Phe-NH2 (peptide)” registered an IC50 activity group, enzyme release assay of less than 50 nM.

“Ac-Phe-Orn-Aze-cha-Bta-NH-CH2-CH2-Ph (peptide)” showed an IC50 activity group, enzyme release assay of less than 2000 nM.

“Ac-Phe-Orn-Aze-cha-Bta-Phe-NH2 (peptide)” displayed an IC50 activity group, enzyme release assay of less than 20 nM.

“Ac-Phe-Orn-Aze-cha-Bta-Phe-NH-Me (peptide)” had an IC50 activity group, enzyme release assay of less than 2000 nM.

Substance “Ac-Phe-Orn-Aze-cha-Mcf-Phe-NH2 (peptide)” yielded an IC50 activity group, enzyme release assay of less than 200 nM.

With “Ac-Phe-Orn-Aze-cha-Pcf-Phe-NH2 (peptide)”, the IC50 activity group, enzyme release assay was less than 2000 nM.

“Ac-Phe-Orn-Aze-cha-Pff-Phe-NH2 (peptide)” had an IC50 activity group, enzyme release assay of less than 200 nM.

In the case of “Ac-Phe-Orn-Aze-cha-Trp-Phe-NH2 (peptide)”, the EC50, agonistic activity, enzyme release assay was greater than 100000 nM and the IC50 activity group, enzyme release assay is less than 50 nM.

For the origin of these results see patent US7727960B2, “C5a receptor antagonists” (Jerini AG, priority 2003, dated 2010).
